What all share (experiment): cell-based or functional assay
Experiment [1] concerns the target HIV-1 92RW020 Env (HIV-1 92RW020).
Experiment [2] has as its target HIV-1 Env of isolate AC10 (clade B pseudovirus) (HIV-1).
The target in experiment [3] is HIV-1 JR-FL Env E168K (HIV-1 JR-FL).
For experiment [4], the target named is HIV-1 Env of isolate ZM214 (clade C pseudovirus) (HIV-1).
Experiment [5] addresses HIV-1 Env of isolate TR0.11 (clade B pseudovirus) (HIV-1).
The target in experiment [6] is HIV-1 Env of isolate DU422 (clade C pseudovirus) (HIV-1).
For experiment [7], the target named is HIV-1 Env of isolate Du172 (clade C pseudovirus) (HIV-1).
The target of experiment [8] is HIV-1 Env of isolate REJ04541 (clade B pseudovirus) (HIV-1).
Experiment [9] concerns the target HIV-1 Env of isolate THRO.18 (clade B pseudovirus) (HIV-1).
The target of experiment [10] is MuLV envelope protein (control pseudovirus) (MuLV).
Experiment [11] addresses HIV-1 Env of isolate DU156 (clade C pseudovirus) (HIV-1).
The target of experiment [12] is HIV-1 Env of isolate CAAN (clade B pseudovirus) (HIV-1).
Experiment [13] addresses HIV-1 Env of isolate ZM249 (clade C pseudovirus) (HIV-1).
For experiment [14], the target named is HIV-1 Env of isolate PVO.4 (clade B pseudovirus) (HIV-1).
Experiment [15] has as its target HIV-1 Env of isolate CAP45 (clade C pseudovirus) (HIV-1).
For experiment [16], the target named is HIV-1 ADA Env (HIV-1 ADA).
In experiment [17] the target is HIV-1 Env of isolate ZM233 (clade C pseudovirus) (HIV-1).

Substitutions are numbered along the chain they refer to. Where only a bound is given, the exact number is not on record here.

B1: 1503_H05 (PG16) (TCN-119) (antibody, V domains shown)
VH: QEKLVESGGGVVQPGGSLRLSCLASGFTFHKYGMHWVRQAPGKGLEWVALISDDGMRKYHSDSMWGRVTISRDNSKNTLYLQFSSLKVEDTAMFFCAREAGGPIWHDDVKYYDFNDGYYNYHYMDVWGKGTIVTVSS
VL: QSALTQPASVSGSPGQTITISCNGTRSDVGGFDSVSWYQQSPGKAPKVMVFDVSHRPSGISNRFSGSKSGNTASLTISGLHIEDEGDYFCSSLTDRSHRIFGGGTKVTVLG
On to B1, for which the results for the IC50 (ug/ml), pseudovirus neutralization, TZM-bl assay in [1], in experiment [3] and in experiment [16] were 0.02 µg/mL, 0.002 µg/mL and 0.003 µg/mL, respectively. Further, the IC50 (neutralization, TZM-bl pseudovirus assay) in experiment [2] was under 0.01 µg/mL; in experiment [4] it was over 25 µg/mL; in [5], 4.3 µg/mL; in experiment [6] it was 0.71 µg/mL; in experiment [7], under 0.01 µg/mL; in experiment [8], 0.22 µg/mL. Moreover, the IC50 (neutralization, TZM-bl pseudovirus assay) was 4.12 µg/mL in [9]; over 25 µg/mL in [10]; under 0.01 µg/mL in experiment [11]; 13.5 µg/mL in [12]; under 0.01 µg/mL in experiment [13]; 11 µg/mL in [14]. The IC50 (neutralization, TZM-bl pseudovirus assay) in [15] and in experiment [17] was under 0.01 µg/mL each time.

B2: 1489_I13 (PG16) (TCN-120) (antibody, V domains shown)
VH: B1 VH with K3Q, V5L, D62N, I132T
VL: B1 VL with R26S
With B2, the IC50 (ug/ml), pseudovirus neutralization, TZM-bl assay in experiment [1] came to 0.03 µg/mL; in experiment [3] it was 0.005 µg/mL; in experiment [16], 0.008 µg/mL. Also, the IC50 (neutralization, TZM-bl pseudovirus assay) in experiment [2] is under 0.01 µg/mL; in experiment [4], over 25 µg/mL; in experiment [5], 10.9 µg/mL; in experiment [6], 1.87 µg/mL; in experiment [7], under 0.01 µg/mL; in [8], 0.34 µg/mL. Besides, the IC50 (neutralization, TZM-bl pseudovirus assay) is 7.41 µg/mL in [9]; over 25 µg/mL in experiment [10]; under 0.01 µg/mL in experiment [11]; 24.9 µg/mL in [12]; under 0.01 µg/mL in experiment [13]; 20.6 µg/mL in experiment [14]. The IC50 (neutralization, TZM-bl pseudovirus assay) in experiment [15] and in experiment [17] was under 0.01 µg/mL throughout.

B3: 1469_M23 (PG16) (TCN-118) (antibody, V domains shown)
VH: B1 VH with I132T
VL: B1 VL with K44R, V107L
For B3, the IC50 (ug/ml), pseudovirus neutralization, TZM-bl assay in [1] was determined as 0.05 µg/mL; in [3], 0.005 µg/mL; in experiment [16], 0.005 µg/mL. Besides, the IC50 (neutralization, TZM-bl pseudovirus assay) in [2] is under 0.01 µg/mL; in experiment [4], over 25 µg/mL; in [5] it was 7.52 µg/mL; in experiment [6] it was 0.97 µg/mL; in experiment [7] it was under 0.01 µg/mL; in experiment [8], 0.39 µg/mL. In addition, the IC50 (neutralization, TZM-bl pseudovirus assay) is 7.01 µg/mL in experiment [9]; over 25 µg/mL in [10]; under 0.01 µg/mL in experiment [11]; 17.7 µg/mL in experiment [12]; under 0.01 µg/mL in [13]; 21.2 µg/mL in [14]. In addition, the IC50 (neutralization, TZM-bl pseudovirus assay) in experiment [15] and in experiment [17] was under 0.01 µg/mL each time.

B4: 1456_A12 (PG16) (TCN-117) (antibody, V domains shown)
VH: B1 VH with Q1H, K3Q, S7A, K87R, I132K
VL: B1 VL with R26S, S27R, I60M, V107L
As for B4, the results for the IC50 (ug/ml), pseudovirus neutralization, TZM-bl assay in [1], in experiment [3] and in [16] were 0.05 µg/mL, 0.003 µg/mL and 0.005 µg/mL, respectively. Further, the IC50 (neutralization, TZM-bl pseudovirus assay) in experiment [2] was under 0.01 µg/mL; in experiment [4], over 25 µg/mL; in experiment [5], 3.05 µg/mL; in [6], 0.36 µg/mL; in experiment [7] it was under 0.01 µg/mL; in [8] it was under 0.01 µg/mL. Further, the IC50 (neutralization, TZM-bl pseudovirus assay) in experiment [9] is 2.08 µg/mL; in [10], over 25 µg/mL; in experiment [11], under 0.01 µg/mL; in experiment [12], 10.6 µg/mL; in experiment [13] it was under 0.01 µg/mL; in [14], 10.4 µg/mL. Besides, the IC50 (neutralization, TZM-bl pseudovirus assay) in experiment [15] and in experiment [17] was under 0.01 µg/mL each time.

These data come from patent US20250320281A1.
